These results are taken from the supplement of paper PMC10724198.

± gives the standard deviation of the averaged measurements.
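Note: PSI is a weighted mean of sequencing reads over stability bins, variants kept only with over 10 reads, mCherry proximal and sfGFP distal, peptide attached via GGGS linker.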

The test system of the series is Saccharomyces cerevisiae. The series can be described thus: protein stability index of tFT-peptide fusion (C-terminal peptide) (PSI (0-1 scale)); higher = more stable (slower turnover). The note with it: genetic background: wild type; temperature: 30 C. The protocol:
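Multiplexed protein stability (MPS) profiling in S. cerevisiae. Random 12-aa peptides (tFT-X12 library) are fused to the C-terminus of a sfGFP-mCherry tandem fluorescent timer, after mCherry and a GGGS linker. Cells are FACS-sorted into 8 mCherry/sfGFP bins and deep-sequenced. The protein stability index (PSI) is the read-weighted bin average, scaled from 0 (unstable) to 1 (stable). Only peptides with >10 reads are reported; cells were grown at 30 °C in SC-His with glucose.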
Sequence CPLPGSRHLAPV displayed a protein stability index of 0.742 ± 0.068.

In turn, CPLPPSTPPLRL displayed a protein stability index of 0.709 ± 0.0098.

For the sequence CPPARLLPHPPA, the protein stability index is 0.733 ± 0.013.

CPPCPSAPPPLP registered a protein stability index of 0.752 ± 0.07.

For CPPFLTPRLAPA, the protein stability index turned out to be 0.778 ± 0.2.

CPPPPPPPRPPP returned a protein stability index of 0.639 ± 0.0095.

On to CPSPPPIPLTLS, for which the protein stability index stood at 0.6221 ± 0.001.

CQDDGTAKRHKG displayed a protein stability index of 0.676 ± 0.061.

CQFPSLPLPSFM: the protein stability index turned out to be 0.66 ± 0.032.

As to CRAPSPRPWRPH, the protein stability index came to 0.708 ± 0.062.

Sequence CRFLDVSSWILI showed a protein stability index of 0.707 ± 0.065.

Consider CRGILVGVWRCG, for which the protein stability index turned out to be 0.5856 ± 0.0014.

Regarding CRGSGGRVVLVG, the protein stability index was 0.674 ± 0.041.

In the case of CRKPRPLSFPLV, the protein stability index worked out at 0.701 ± 0.043.

As for CRRSCPRLTVTR, the protein stability index was found to be 0.746 ± 0.015.

Consider CRSLSAPLPGSF, for which the protein stability index came to 0.657 ± 0.021.

Turning to CRTFSALVDRFT, the protein stability index was found to be 0.687 ± 0.046.

On to CRTPQICASCLC, for which the protein stability index amounted to 0.59 ± 0.015.

CRTSRSSSLPPY gave a protein stability index of 0.7218 ± 0.0054.

As to CRVNSVRPVYPS, the protein stability index came to 0.7079 ± 0.0049.

Sequence CSEGSSFVDKRG gave a protein stability index of 0.594 ± 0.039.

Consider CSERGQVCAVVY, for which the protein stability index worked out at 0.553 ± 0.066.

CSFCVLGPGLHL: the protein stability index came to 0.672 ± 0.047.

With CSLRSSGLGFKQ, the protein stability index amounted to 0.62 ± 0.072.

Regarding CSPSYTCRIISF, the protein stability index was found to be 0.7076 ± 0.006.

With CSRFGRLCYNGE, the protein stability index came out at 0.618 ± 0.023.

CSRPSLPIYYCS showed a protein stability index of 0.581 ± 0.028.

CSSACPPPPPAT showed a protein stability index of 0.733 ± 0.014.

CSVCPGYLFGCA came in with a protein stability index of 0.601 ± 0.025.

Regarding CSVPPPLPPTTF, the protein stability index is 0.683 ± 0.073.

In the case of CTFCLGSATVRT, the protein stability index is 0.702 ± 0.04.

In turn, CTGLEGGGLPFR registered a protein stability index of 0.636 ± 0.12.

As to CTGVFTGRCEGG, the protein stability index is 0.653 ± 0.028.

On to CTISHSGHSGST, for which the protein stability index was 0.706 ± 0.058.

Consider CTQCCSGARLFM, for which the protein stability index was determined as 0.672 ± 0.081.

As for CTRHNGTCRVKA, the protein stability index stood at 0.658 ± 0.017.

CTRRRLLVPRVK yielded a protein stability index of 0.599 ± 0.028.

Regarding CTVGWNLVFQFG, the protein stability index was determined as 0.641 ± 0.08.

In turn, CVAACSGHAAVG gave a protein stability index of 0.692 ± 0.017.

As for CVAAISGESLLR, the protein stability index was 0.667 ± 0.021.

CVDGLFCCLVFW showed a protein stability index of 0.571 ± 0.028.

As to CVFLGRMSFLAF, the protein stability index came out at 0.602 ± 0.03.

As for CVGTDVWQASSR, the protein stability index turned out to be 0.6 ± 0.057.

CVIGRDGTDLWV had a protein stability index of 0.685 ± 0.0089.

In the case of CVPYLGEFTRNG, the protein stability index came to 0.691 ± 0.038.

Take CVVAISGLSHFL: the protein stability index came out at 0.623 ± 0.015.

The sequence CVWCSGRSPCYV returned a protein stability index of 0.634 ± 0.047.

In the case of CVWKWFSFSGGG, the protein stability index is 0.69 ± 0.021.

Sequence CWGGGGLWLLEV registered a protein stability index of 0.515 ± 0.012.

CWGGWGLWLLEV came in with a protein stability index of 0.516 ± 0.023.

Take CWGLRVMGGTGR: the protein stability index was 0.702 ± 0.013.

Sequence CWSCLRGYRFQT had a protein stability index of 0.664 ± 0.028.

CYIFFFSRELFY registered a protein stability index of 0.5685 ± 0.0045.

Sequence DAGVDVGVGTHD gave a protein stability index of 0.605 ± 0.041.

DAGWTRGGEGVW had a protein stability index of 0.739 ± 0.032.

Consider DARTLTECTCRG, for which the protein stability index was 0.648 ± 0.072.

With DASLTSGVARST, the protein stability index worked out at 0.67 ± 0.042.

In turn, DAVRRNSAWFSF yielded a protein stability index of 0.677 ± 0.025.

For DAWRAGESTEGG, the protein stability index was determined as 0.71 ± 0.027.

As for DCLSVWCSIPGA, the protein stability index came to 0.775 ± 0.086.

The sequence DCRELCQSEVMG returned a protein stability index of 0.643 ± 0.1.

Turning to DCRPNIRSRVSG, the protein stability index was determined as 0.785 ± 0.18.

Sequence DCSCIYGHRVVV registered a protein stability index of 0.6466 ± 0.0038.

The sequence DCVRMLREGAGW yielded a protein stability index of 0.721 ± 0.079.
